The target of data set [1] is RUNX3 (Runt-related transcription factor 3) protein, Q13761.

These results are taken from patent US20210330742.

Sequence of RUNX3 (Runt-related transcription factor 3) protein, Q13761 (Q13761 whole entry): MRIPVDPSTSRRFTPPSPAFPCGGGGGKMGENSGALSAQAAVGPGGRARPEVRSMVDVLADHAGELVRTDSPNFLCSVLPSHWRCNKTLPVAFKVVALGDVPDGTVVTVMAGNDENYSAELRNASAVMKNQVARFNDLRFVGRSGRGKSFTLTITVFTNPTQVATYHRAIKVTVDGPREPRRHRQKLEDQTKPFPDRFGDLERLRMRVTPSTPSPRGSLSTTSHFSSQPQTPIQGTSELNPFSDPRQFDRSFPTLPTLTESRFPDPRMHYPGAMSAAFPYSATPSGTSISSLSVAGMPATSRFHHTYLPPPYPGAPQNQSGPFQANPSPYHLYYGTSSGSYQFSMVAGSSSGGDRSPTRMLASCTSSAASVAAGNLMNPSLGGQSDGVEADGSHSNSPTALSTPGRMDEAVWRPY
Sequence of Myc-RUNX3, Q13761 (Q13761 whole entry): as above

B1: CDK4-WT (over-expressed) (protein)
chain: MATSRYEPVAEIGVGAYGTVYKARDPHSGHFVALKSVRVPNGGGGGGGLPISTVREVALLRRLEAFEHPNVVRLMDVCATSRTDREIKVTLVFEHVDQDLRTYLDKAPPPGLPAETIKDLMRQFLRGLDFLHANCIVHRDLKPENILVTSGGTVKLADFGLARIYSYQMALTPVVVTLWYRAPEVLLQSTYATPVDMWSVGCIFAEMFRRKPLFCGNSEADQLGKIFDLIGLPPEDDWPRDVSLPRGAFPPRGPRPVQSVVPEMEESGAQLLLEMLTFNPHKRISAFRALQHSYLHKDEGNPE
Turning to B1, in the data set with Myc-RUNX3, Q13761, the “phosphorylation of RUNX3 at Ser-356 (immunoblot)” value is recorded as “The over-expressed CDK4-WT phosphorylated Myc-RUNX3 2 to 4 hours after serum stimulation”.

B2: Flag-CDK4-T172A (protein)
chain: MATSRYEPVAEIGVGAYGTVYKARDPHSGHFVALKSVRVPNGGGGGGGLPISTVREVALLRRLEAFEHPNVVRLMDVCATSRTDREIKVTLVFEHVDQDLRTYLDKAPPPGLPAETIKDLMRQFLRGLDFLHANCIVHRDLKPENILVTSGGTVKLADFGLARIYSYQMALAPVVVTLWYRAPEVLLQSTYATPVDMWSVGCIFAEMFRRKPLFCGNSEADQLGKIFDLIGLPPEDDWPRDVSLPRGAFPPRGPRPVQSVVPEMEESGAQLLLEMLTFNPHKRISAFRALQHSYLHKDEGNPE
Consider B2, for which the “phosphorylation of RUNX3 at Ser-356 (immunoblot)” value in data set [1] is “did not phosphorylate the 356th serine of RUNX3”.
